The results in this text go back to patent publication US20100279930A1, “HUMAN PANCREATIC POLYPEPTIDE (HPP) ANALOGUES AND THEIR EFFECTS ON FEEDING BEHAVIOUR” (priority 2007, published 2010).

The test system of this data set is Male C57BL/6 mice. As to the kind of experiment: In vivo food intake experiments in mice (half-life in the blood judged from appetite suppression). Set-up: species or system mouse. The following applies: comparator native human PP; judged from food intake reduction in mice (4-8 h, 0-24 h, 4:1 or 24:1 ratio). The procedure: In Vivo Food Intake Experiments
Male C57BL/6 mice (20-30 g) were used for all mouse experiments. Mice were individually housed in IVC cages. Animals were randomized by weight and fasted overnight for 16 hrs before intraperitoneal injection at 9 am. All peptide solutions were prepared freshly the morning of the study and injected as 100 ul. Food intake was measured at 1, 2, 3, 4, 6, 8 and 24 hours post injection. The peptide was dosed at 30 nmol/kg, 50 nmol/kg, 100 nmol/kg, 120 nmol/kg, 150 nmol/kg, 300 nmol/kg, 600 nmol/kg or 1000 nmol/kg depending on the activity. In each case, a control of saline and a control of unmodified human Pancreatic Polypeptide was carried out. All statistics are calculated using a one-way ANOVA with Dunnett's post-test or one-way ANOVA with Bonferroni post-test.
A control of saline was used.
FIG. 2 and in the comparative graph of FIG. 3. […] It is hypothesized that that is as a possible result of stronger activity at the receptor and longer activity.
The mouse is a good model for degradation rates in humans, irrespective of the fact that the receptors for PP in mice are different from the human receptor.

B1: 4055860 (peptide)
chain: CAPLEPVYPGDNATPEQMAQYAADLRRYINMLTRPRYCAPLEPVYPGDNATPEQMAQYAADLRRYINMLTRPRY
modifications: synthetic hPP analogue peptide
B1: the “half-life in the blood compared with native human PP” value is “longer half life”.
